# “Also recorded” adds a separate entry of the source.
# Key:
# [1] = tested on: endogenous NIS expressing organs (thyroid and stomach) and heterologous NIS expressing tumor cells; experiment: Dual isotope SPECT/CT imaging of nude mice with BXPC-3-hNIS tumors; settings: four hours after i.p. administration of 250 μCi each
# Protocol: FIG. 6. SPECT/CT dual isotope imaging of nude mice implanted with SQ BXPX-3-hNIS tumors. Animals were injected i.p with 250 μCi ^125I and 250 μCi ^99mTc and imaged four hours later. Images were processed using Vivo Quant software. The scale was adjusted manually to get minimal yellow in the tissues.
# The stomach and thyroid signals were subtract from the SPECT dataset (FIG. 5). In this experiment, nude female mice (5-week of age) were injected with 3×10^6 BXPC-3-hNIS cells. When tumors reached a diameter of 1 cm, mice were injected I.P. with ^125I sodium iodide (250 μCi) and/or ^99mTc-pertechneate (250 μCi). Four hours post isotope administration, SPECT/CT data were acquired with U-SPECT-II (MiLabs). […] Radioiodide thyroid signal subtraction was performed by normalizing the ^125I SPECT data to thyroid tissue on the ^99mTc SPECT data using the image arithmetic tools available in PMOD image fusion software. This was performed in three steps by (1) calculating the normalization factor (i.e., the inverse ratio between the maximum voxel value corresponding to the thyroid tissue on the ^125I SPECT and the maximum voxel value corresponding to the thyroid tissue on the ^99mTc SPECT data set), (2) multiplying each voxel in the ^125I SPECT dataset by this normalization factor, and (3) subtracting the normalized ^125I SPECT dataset from ^99mTc SPECT data set to generate a thyroid subtraction SPECT dataset (FIG. 5C). Similarly, ^99mTc stomach signal subtraction was performed by (1) calculating the normalization factor which in this case is the inverse ratio of the maximum voxel value corresponding to the stomach tissue on the ^99mTc SPECT to the maximum voxel value corresponding to the stomach tissue in the ^125I SPECT data set, (2) multiplying each voxel in the ^99mTc SPECT dataset by this normalization factor, and (3) subtracting the normalized ^99mTc SPECT dataset from ^125I SPECT data set to generate a stomach subtraction SPECT dataset (FIG. 5B).
# NIS expressing cells = settings: cited from earlier work
# [2] = tested on: stomach signal from NIS polypeptide-mediated uptake of radioisotopes; settings: mouse fed by gavage, then imaged; NIS transduced liver
# From the text: FIG. 2B is a photograph of the same mouse fed oral contrast agent.
# Mel624 cells = experiment: Radiotracer uptake assay in Mel624 cells stably expressing NIS polypeptides; format: cell-based; settings: for Uptake of pertechnetate (Technetium-99m) / Uptake of radioiodide (Iodine-125): Mel624 cells expressing the NIS polypeptide, 1 hour at 37° C., +/- 300 μM KClO4
# Protocol: Mel624 cells stably expressing a wild-type human NIS polypeptide (Mel-NIS) or one of two mutant NIS polypeptides (Mel-NIS-93E or Mel-NIS-93Q) were plated in 96-well plates at a density that would lead them to confluency on the day of the uptake assay. 1×Hank's balanced salt solution with calcium, magnesium (HBSS) (Cellgro) and 1 mM HEPES was adjusted to pH 7.3 using KOH (HBBS-HEPES) on the day of the assay. Culture medium was removed from the cells, and 150 μL of HBSS-HEPES+/−300 μM KClO4 was added to the wells. The cells were incubated for 10 minutes at room temperature prior to the addition of radiotracer. Radiotracers, ^125I and ^99mTc, were diluted in HBSS-HEPES to about 70,000 to 100,000 CPM/25 μL (CPM, counts per minute). 25 μL of radiotracer was added to the cells in HBSS-HEPES+/−KClO4, and the cells were incubated at 37° C. for 1 hour. The cells were then washed twice with cold HBSS-HEPES buffer and lysed to release the intracellular radiotracer by adding 200 μL 1M NaOH. Lysates were transferred to strip tubes and quantified using a gamma counter.
# Hela-YFP-IS cells = experiment: Non-radioactive YFP-H148Q/I152L in vitro uptake assay; format: cell-based
# From the text: FIG. 11 contains graphs plotting the relative fluorescence Hela-YFP-IS cells expressing no NIS (i) or the indicated mutant NIS (ii-viii) after treatment with I^−, ReO4^−, BF4^−, and ClO4^−. These graphs show the concentration dependence of I^−, ReO4^−, BF4^−, and ClO4^− induced changes in YFP-H148Q/I152L fluorescence in Hela-YFP-IS cells expressing the indicated NIS mutants.
# Using an anti-HA-tag-Alexa-Fluor-647 monoclonal antibody, cells expressing the NIS mutants on the cell surface were labeled and quantified using flow cytometry. […] A non-radioactive YFP-H148Q/I152L in vitro uptake assay was used to monitor uptake of NIS substrates: […], […], BF4^−, and ClO4^−. The NIS mutants were co-expressed with YFP-H148Q/I152L, which decreased in fluorescence following an interaction with halides. […] This was particularly so at the lowest substrate concentrations, which are of clinical relevance as radiotracers used for imaging are administered to animals and humans in trace amounts. At 1-5 μM concentrations of substrate, NIS-Q72N transported less iodide but more ClO4^− into the cells.
# [3] = 1-5 μM concentrations of substrate, YFP-H148Q/I152L fluorescence
molecule,measurement,setting,value
"[125I-].[Na+] [^125I, ^125I sodium iodide]",Accumulation in BXPC-3-hNIS tumor cells,[1],accumulate both isotopes to similar concentrations
same,Organ that preferentially accumulates the isotope,[1],thyroid preferentially accumulates
"[O]=[99Tc](=[O])(=[O])[O-] [^99mTc, ^99mTc-pertechneate]",Accumulation in BXPC-3-hNIS tumor cells,[1],accumulate both isotopes to similar concentrations
same,Organ that preferentially accumulates the isotope,[1],stomach preferentially accumulates
[O-][Cl+3]([O-])([O-])O [perchlorate],Efficiency of concentration in NIS expressing cells compared to iodide anions (less efficiently),NIS expressing cells,10 fold
O=S(=O)([O-])[O-].[Ba+2] [barium sulfate],Isotope signals from the stomach,[2],reduced isotope signals from the stomach
"NIS-93E: mutant human sodium iodide symporter polypeptide, human NIS-93E (SEQ ID NO:1) (protein, listed as Homo sapiens) MEAVETGERPTFGAWDYGVFALMLLVSTGIGLWVGLARGGQRSAEDFFTGGRRLAALPVGLSLSASFMSAVQVLGVPSEAYRYGLKFLWMCLEQLLNSVLTALLFMPVFYRLGLTSTYEYLEMRFSRAVRLCGTLQYIVATMLYTGIVIYAPALILNQVTGLDIWASLLSTGIICTFYTAVGGMKAVVWTDVFQVVVMLSGFWVVLARGVMLVGGPRQVLTLAQNHSRINLMDFNPDPRSRYTFWTFVVGGTLVWLSMYGVNQAQVQRYVACRTEKQAKLALLINQVGLFLIVSSAACCGIVMFVFYTDCDPLLLGRISAPDQYMPLLVLDIFEDLPGVPGLFLACAYSGTLSTASTSINAMAAVTVEDLIKPRLRSLAPRKLVIISKGLSLIYGSACLTVAALSSLLGGGVLQGSFTVMGVISGPLLGAFILGMFLPACNTPGVLAGLGAGLALSLWVALGATLYPPSEQTMRVLPSSAARCVALSVNASGLLDPALLPANDSSRAPSSGMDASRPALADSFYAISYLYYGALGTLTTVLCGALISCLTGPTKRSTLAPGLLWWDLARQTASVAPKEEVAILDDNLVKGPEELPTGNKKPPGFLPTNEDRLFFLGQKELEGAGSWTPCVGHDGGRDQQETNL",Efficiency of concentrating iodide relative to TcO4,Mel624 cells,concentrate iodide with greater efficiency than TcO4
same,Concentration of Iodine-125 uptake in tumor cells as compared to non-mutated NIS (NIS WT),Mel624 cells; FIGS. 1A and 1B,decrease the concentration of Iodine-125 uptake
same,Uptake of pertechnetate (Technetium-99m),Mel624 cells,minimal or no uptake of pertechnetate; also recorded: not pertechnetate
same,Uptake of radioiodide (Iodine-125),Mel624 cells,can uptake radioiodide; also recorded: capable of up-taking radioiodide
same,Uptake of pertechnetate (Technetium-99m),Mel624 cells; listed as NIS-G93E,not Technetium-99m
same,Uptake of radioiodide (Iodine-125),Mel624 cells; listed as NIS-G93E,transport selectively Iodine-125; also recorded: selectively transports Iodine-125
"wild-type human NIS polypeptide: wild-type human sodium iodide symporter polypeptide (protein, UniProt Q92911 1-643, looked up) Sodium/iodide cotransporter: MEAVETGERPTFGAWDYGVFALMLLVSTGIGLWVGLARGGQRSAEDFFTGGRRLAALPVGLSLSASFMSAVQVLGVPSEAYRYGLKFLWMCLGQLLNSVLTALLFMPVFYRLGLTSTYEYLEMRFSRAVRLCGTLQYIVATMLYTGIVIYAPALILNQVTGLDIWASLLSTGIICTFYTAVGGMKAVVWTDVFQVVVMLSGFWVVLARGVMLVGGPRQVLTLAQNHSRINLMDFNPDPRSRYTFWTFVVGGTLVWLSMYGVNQAQVQRYVACRTEKQAKLALLINQVGLFLIVSSAACCGIVMFVFYTDCDPLLLGRISAPDQYMPLLVLDIFEDLPGVPGLFLACAYSGTLSTASTSINAMAAVTVEDLIKPRLRSLAPRKLVIISKGLSLIYGSACLTVAALSSLLGGGVLQGSFTVMGVISGPLLGAFILGMFLPACNTPGVLAGLGAGLALSLWVALGATLYPPSEQTMRVLPSSAARCVALSVNASGLLDPALLPANDSSRAPSSGMDASRPALADSFYAISYLYYGALGTLTTVLCGALISCLTGPTKRSTLAPGLLWWDLARQTASVAPKEEVAILDDNLVKGPEELPTGNKKPPGFLPTNEDRLFFLGQKELEGAGSWTPCVGHDGGRDQQETNL",Uptake of pertechnetate (Technetium-99m),Mel624 cells,Substantial uptake
same,Uptake of radioiodide (Iodine-125),Mel624 cells,Substantial uptake
"NIS-Q72N: human NIS with Q72 mutated to N, N-terminal HA-tag (protein, UniProt Q92911 1-643, looked up, variant Q72N, N-terminal HA tag) Sodium/iodide cotransporter: MEAVETGERPTFGAWDYGVFALMLLVSTGIGLWVGLARGGQRSAEDFFTGGRRLAALPVGLSLSASFMSAVNVLGVPSEAYRYGLKFLWMCLGQLLNSVLTALLFMPVFYRLGLTSTYEYLEMRFSRAVRLCGTLQYIVATMLYTGIVIYAPALILNQVTGLDIWASLLSTGIICTFYTAVGGMKAVVWTDVFQVVVMLSGFWVVLARGVMLVGGPRQVLTLAQNHSRINLMDFNPDPRSRYTFWTFVVGGTLVWLSMYGVNQAQVQRYVACRTEKQAKLALLINQVGLFLIVSSAACCGIVMFVFYTDCDPLLLGRISAPDQYMPLLVLDIFEDLPGVPGLFLACAYSGTLSTASTSINAMAAVTVEDLIKPRLRSLAPRKLVIISKGLSLIYGSACLTVAALSSLLGGGVLQGSFTVMGVISGPLLGAFILGMFLPACNTPGVLAGLGAGLALSLWVALGATLYPPSEQTMRVLPSSAARCVALSVNASGLLDPALLPANDSSRAPSSGMDASRPALADSFYAISYLYYGALGTLTTVLCGALISCLTGPTKRSTLAPGLLWWDLARQTASVAPKEEVAILDDNLVKGPEELPTGNKKPPGFLPTNEDRLFFLGQKELEGAGSWTPCVGHDGGRDQQETNL",ClO4- transported into the cells compared to wild-type NIS,Hela-YFP-IS cells; [3],more ClO4^−
same,Iodide transported into the cells compared to wild-type NIS,Hela-YFP-IS cells; [3],less iodide
same,Substrate transport profile compared to wild-type NIS,"Hela-YFP-IS cells; I-, ReO4-, BF4-, ClO4-, FIGS. 11 and 12",altered substrate transport profile

# Reference: patent US20160046680A1, “RADIOTRACER IMAGING USING SODIUM IODIDE SYMPORTER POLYPEPTIDES” (MAYO FOUNDATION FOR MEDICAL EDUCATION AND RESEARCH, priority 2013, published 2016)
